Experimental data reported in patent US20080118978A1 (published 2008).

Legend:
CD10 [1] = biological target: T1, CD10 (human, UniProt P08473 2-750); experiment: ELISA on plate-coated membrane fraction of CD10-expressing SBC-3 cells
T1 construct: Endogenous CD10 of human cell lines: on Raji, RTX/Raji and Ramos cells in flow cytometry; In the ELISA it was a Triton X-100-dissolved membrane fraction of SBC-3 cells coated on the plate; also called CALLA; neutral endopeptidase
Protocol: As to an antigen, a membrane fraction prepared from human lung small-cell tumor cell line SBC-3 cells (JCRB 0818) which highly express CD10 was used. The membrane fraction was suspended in 20 mM HEPES (pH 7.4) buffer containing 1 mM EDTA and 250 mM sucrose and cells were crushed using a homogenizer, then centrifugal separation was carried out at a low speed of 8,000×g so that granules in the cells and uncrushed cells were precipitated and removed and a centrifugal separation was carried out at a high speed of 80,000×g to separate the desired cell membrane. The separated membrane fraction was dissolved in PBS containing 0.1% of Triton-X 100 whereby protein was quantified, then made 10 μg/mL, dispensed at 50 μL/well into a 96-well plate for ELISA (manufactured by Gliner) and allowed to stand at 4° C. for one night for adsorption. After washing with PBS, 1% BSA-PBS was added in an amount of 100 μL/well and the reaction was carried out at room temperature for 1 hour to block the remaining active groups were blocked. […] After the reaction, each well was washed with Tween-PBS, a peroxidase-labeled goat anti-human IgG (H&L) antibody solution diluted 2,000-fold with 1% BSA-PBS was added as a secondary antibody solution in an amount of 50 μL/well and reaction was carried out at room temperature for 1 hour. After the reaction, washing was carried out with Tween-PBS, an ABTS substrate solution was added in an amount of 50 μL/well to develop color and OD415 was measured.

CD10 [2] = biological target: T1, CD10; experiment: flow cytometry on Raji and RTX/Raji cells, FITC anti-mouse IgG secondary
Protocol: The supernatant liquid was removed, cell pellets were loosened and 10 μL of FcR blocking reagent (manufactured by Miltenyi Biotec) was added thereto. After the mixture was allowed to stand on ice for about 30 minutes, an FACS buffer was added thereto and washed by centrifugal separation (about 5000×g for 1 minutes at 4° C.) was repeated three times. An FACS buffer was added so as to give a cell density of 2×10⁷ cells/ml for suspension and each 50 μL thereof was aliquated into a tube. The FACS buffer (50 μL) was added to each tube to suspend and the primary antibody solution was added thereto in an amount of 2.5 μL per tube. With regard to the primary antibody solution, each of mouse anti-CD10 antibody NL-1 [Proc. Natl. Acad. Sci. USA, 79, 4386 (1982)], anti-CD20 antibody B1 (manufactured by Beckman Coulter), FITC-labeled anti-CD19 antibody J4.119 (manufactured by Beckman Coulter) and FITC-labeled anti-CD22 antibody SJ.10.1H11 (manufactured by Beckman Coulter) was used. […] It was filtered by a Nylon mesh and transferred to a test tube to prepare a sample to be measured. Expression of CD antigen on the cell surface was measured using a flow cytometer Epics Elite (manufactured by Beckman Coulter).

T1 sequence (P08473 2-750 limits assumed): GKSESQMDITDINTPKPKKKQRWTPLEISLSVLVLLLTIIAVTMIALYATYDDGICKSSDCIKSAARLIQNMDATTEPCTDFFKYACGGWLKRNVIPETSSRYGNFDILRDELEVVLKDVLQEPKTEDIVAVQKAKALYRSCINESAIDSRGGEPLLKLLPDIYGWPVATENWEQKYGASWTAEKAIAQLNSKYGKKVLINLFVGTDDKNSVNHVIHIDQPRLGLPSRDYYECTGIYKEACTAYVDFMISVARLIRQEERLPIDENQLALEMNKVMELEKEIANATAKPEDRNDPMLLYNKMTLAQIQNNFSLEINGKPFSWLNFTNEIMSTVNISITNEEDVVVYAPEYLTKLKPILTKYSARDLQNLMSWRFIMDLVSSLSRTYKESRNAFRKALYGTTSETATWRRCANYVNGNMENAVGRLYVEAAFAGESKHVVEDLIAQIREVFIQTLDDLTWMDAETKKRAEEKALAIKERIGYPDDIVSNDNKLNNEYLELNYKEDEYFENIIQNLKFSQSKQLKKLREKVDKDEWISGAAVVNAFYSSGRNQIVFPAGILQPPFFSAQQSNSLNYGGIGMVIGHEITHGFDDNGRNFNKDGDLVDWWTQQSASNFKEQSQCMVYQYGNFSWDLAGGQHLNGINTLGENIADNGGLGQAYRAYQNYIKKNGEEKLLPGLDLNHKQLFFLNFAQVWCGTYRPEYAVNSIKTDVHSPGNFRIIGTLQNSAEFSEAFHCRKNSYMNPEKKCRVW

| Binder | binding result (CD10 [1]) | binding result (CD10 [2]) |
| --- | --- | --- |
| anti-CD10 humanized antibody HV0LV9 MS705 (antibody, V domains shown, also called HV0LV9 MS705 antibody; FERM BP-10099) VH: EVQLVESGGGVVQPGRSLRLSCAASGFTFSSFGMHWVRQAPGKGLEWVAYISGGSYTIYYADTVKGRFTISRDNSKNTLYLQMNSLRAEDTAVYYCARSYGNFWYFDVWGQGTTVTVSS VL: DIVMTQSPDSLAVSLGERATIACSVSSSISSSNLHWYQQKPGQSPKPWIYGTSNLASGVPVRFSGSGSGTSYFLTISSLQAEDVATYYCQQWSSYPLTFGQGTKVEIKR | binds |  |
| anti-CD10 humanized antibody HV2LV9 MS705 (antibody, V domains shown, also called HV2LV9 MS705 antibody) VH: EVQLVESGGGVVQPGRSLRLSCAASGFTFSSFGMHWVRQAPEKGLEWVAYISGGSYTIYYADTVKGRFTISRDNSKNTLYLQMNSLRAEDTAVYYCASSYGNFWYFDVWGQGTTVTVSS VL: DIVMTQSPDSLAVSLGERATIACSVSSSISSSNLHWYQQKPGQSPKPWIYGTSNLASGVPVRFSGSGSGTSYFLTISSLQAEDVATYYCQQWSSYPLTFGQGTKVEIKR | binds |  |
| anti-CD10 humanized antibody HV0LV0 MS705 (antibody, V domains shown, also called HV0LV0 MS705 antibody) VH: EVQLVESGGGVVQPGRSLRLSCAASGFTFSSFGMHWVRQAPGKGLEWVAYISGGSYTIYYADTVKGRFTISRDNSKNTLYLQMNSLRAEDTAVYYCARSYGNFWYFDVWGQGTTVTVSS VL: DIVMTQSPDSLAVSLGERATINCSVSSSISSSNLHWYQQKPGQPPKLLIYGTSNLASGVPDRFSGSGSGTDFTLTISSLQAEDVAVYYCQQWSSYPLTFGQGTKVEIKR | binds |  |
| mouse anti-CD10 antibody NL-1 (antibody, V domains shown, Mouse hybridoma antibody; H chain cloned with a mouse Cgamma2a probe and L chain with a Ckappa probe; also called anti-CD10 mouse antibody NL-1) VH: DVQLVESGGGLVQPGGSRKLSCAASGFTFSSFGMHWVRQAPEKGLEWVAYISGGSYTIYYADTVKGRFTISRDNPKNTLFLQMTSLRSEDTAMYYCASSYGNFWYFDVWGAGTTVTVSS VL: EIVLTQSPALMAASPGEKVTIACSVSSSISSSNLHWYQQKSETSPKPWIYGTSNLASGVPVRFSGSGSGTSYFLTISSMEAEDAATYYCQQWSSYPLTFGGGTKLEIK |  | binds |
